The nature of this series: label from the status in PepcDB records.
Take “VFGVKEWECEVLSNKNVSTFIKEFVVKLPEGETMNFKSGSYAQIKIPKYNIRYADYDIQDRFRGDWDKMDAWSLTCKNEEETVRAYSMANYPAEGNIITLNVRIATPPFDRAANKWKAGIKPGISSSYIFSLKPGDKVMMSGPYGDFHIQDTDAEMLYIGGGAGMAPLRAQILHLFRTLKTGRKVSYWYGARSKNEIFYEEDFREIEREFPNFKFHIALSDPQPEDNWTGYVGFIHQVIYDNYLKDHDAPEDIEYYMCGPGPMANAVKGMLENLGVPRNMLFFDDFG”: the protein production result is on record as “not failed”.
With “VGFAPELYCGLENCYDVLEVNREEFDKQKLAKAYRALARKHHPDRVKNKEEKLLAEERFRVIATAYETLKDDEAKTNYDYYLDHPDQRFYNYYQY” the entry was “not failed”; with “VGFLMFGNLLRECGVLDRLSQTAQNELVNIISILLGLTISIKMQADLFLNVQTL”, “failed”; with “VGGFTWDLSANLSSVANKIISLPYNGIENNRVGGYEVAVGKGTNATKWIAGRQEGGKLGEMVAYKQNHIFKSWDDVKEHANMMIDEVANLYGPGLASEYAGKEGWKPIEPGDVCWEDINGDNKINGLDREVVGNIFPKVTGGFSSTLSWKGISLYARFDYALGHTLYNDLAARTLGQYQGAFNIITEVKDMWSEDNPNSDLPAFYYADQLAKKNITRSNNASASRHNNSSRLYEKADYLALRELTLSWDLPKAWTSKAFIQNASVYVTGQNLFYVTGYTGTSPEPVLTNSDNNENLYGVDQGRYPTPRTVLFGLSVTF”, “failed”.
Under “VGKEKAEVELLQVDVDLQADIVAKYNAQLQKAVQVEEKKAREAATEAVKEMVKAEYEERYAEDENLATIMRDVAEILEQMEHAEVRRLITEDKIRPDGRKIDEIRP” stands “failed”; under “VHVLIRPLQAQDREREKAFIERLSPESRHFRFLCQLREPGEAMLDQLMKVDQDRQAAYVALAHVDGELQEVGISRYATASGKDECECAVTVMDSWQHHGLGRLLLKHLIDHARAKGLRQMYSVDAAANQAMRELAKAAGFTT”, “failed”; under “VKDVRKIQFMPMERHNTELLSLVDNLPDPVFAIDLKGAVDMANMSALSLLGLHKQEVIGTQIGALLPSVRFSRWSEGVNARTRENLVIDGLDYILELMPVY”, “failed”.
With “VKRFWENVGKPNDTTDGRGTTSLAMTPISQTPGLLAEAMVDLGAIEHNVRVLREHAGHAQLMAVVKADGYGHGATRVAQTALGAGAAELGVATVDEALALRADGITAPVLAWLHPPGIDFGPALLADVQVAVSSLRQLDELLHAVRRTGRTATVTVKVDTGLNRNGVGPAQFPAMLTALRQAMAEDAVRLRGLMSHMVYADKPDDSINDVQAQRFTAFLAQAREQGVRFEVAHLSNSSATMARPDLTFDLVRPGIAVYGLSPVPALGDMGLVPAMTVKCAVALVKSIRAGEGVSYGHTWIAPRDTNLALLPIGYADGVFRSLGGRLEVLINGRRCPGVGRICMDQFMVDLGPGPLDVAEGDEAILFGPGIRGEPTAQDWADLVGTIHYEVVTSPRGRITRTYREAENR” the entry was “not failed”.
On to “VKRKGVEVIIALDISNSMLAQDVQPSRLEKAKRLISRLVDELDNDKVGMIVFAGDAFTQLPITSDYISAKMFLESISPSLISKQGTAIGEAINLATRSFTPQEGVGRAIIVITDGENHEGGAVEAAKAAAEKGIQVSVLGVGMPEGAPIPVEGTNDYRRDREGNVIVTRLNEGMCQEIAKDGKGIYVRVDNSNSAQKAISQEISKMAKSDVE”, for which the protein production result was “not failed”.
Consider “VLAPVVPGKALEFPQDFGAHNDFRIEWWYVTGWLETPTGKPLGFQITFFRTATEIDRDNPSHFAPDQLIIAHVALSDPAIGKLQHDQKIARAGFDLAYARTGNTDVKLDDWIFVRETDGRYRTRIEAEDFTLTFILTPSQPLMLQGENGFSRKGPGAPQASYYYSEPHLQVSGIINRQGEDIPVTGTAWLDREWSSEYLDPNAAGWDWISANLDDGSALMAFQIRGKDDSKIWAYAALRDASGHTRLFTPDQVSFHPIRTWRSARTQAVYPVATRVLTGETEWQITPLMDDQELDSRASAGAVYWEGAVTFTRDGQPAGRGYMELTGYVRPLSM”, for which the protein production entry is “not failed”.
With “VPGILMCEIFIRANQRSYSVQARSLRLHGVATSVRLEQLFWDVLEEIAARDGMRVTQLIERLYDELVQYRGEAANFTSFLRVCCLRYQVLQAEGRIPADATVPIRSLDAQAVLRGLPANLYDSR” the entry was “not failed”.
With “VPKIVDHDERRRALADAVLALIAREGISAVTTRAVAEESGWSTGVLNHYFGSRHELLLAALRRAGDIQGDRYRTILDEEGAGPIEKLRNITASILPLDERRLAMTRVFLFFYAEGAAEETARGEIAAFLARWRGVVRESVVAAQREGTVSTDLDADAVTVALVALTDGLALQAILDPVVMKAISAEDAAARCVDAAVRRTTEEAGAVGR” the entry was “not failed”; with “VQFSLLHSKFHLCSVATRALLLSTYIKFINLFPETKATIQGVLRAGSQLRNADVELQQRAVEYLTLSSVASTDVLATVLEEMPPFPERESSILAKLKRKKGPGAGSALDDGRRDPSSNDINGGME”, “failed”.
Take “VQLVRLLEEKIKSLQIEIENLRKELNYYKAEMEKMLSPPLIEAVVLDVLPDGRVLVRSSSGPNLVVNIASHIDQKLIKPGISVALNQRGSTILEVLPQKEDPIVKTMEIIERPN”: the protein production result was “not failed”.
On to “VRISRPDVLLNIHIAQTTCTLSLDSSGESLHRRGYRQEAVEAPLNEVLAAGMILMTGWKGECDLIDPMCGSGTIPIEAALIARNIAPGVFRKEFAFEKWGDFDQNLFDRIYNDDSQEREFTHKIYGYDNNPKANEIATHNVKAAGVSKDIILKLQPFQQFEQPAEKSIIITNPPYGERISTNDLLGLYNMIGERLKHAFVGNDAWILSYREECFDQIGLKPSVKTPLFNGPLECEFRKYQIFDGKY”, for which the protein production result is given as “failed”.
“VRRIKLGSQGLEVSAQGLGCMGLSAFYGTPKPETEAIALIHHAIHSGVTFLDTSDIYGPETNELLLSKALKDGVREKVELATKYGIRYAEGKVEFKGDPAYVRAACEASLMRVDVACIDLYYQHRIDTRVPIEITIGELKKLVEEGKIKYIGLSEASASTIRRAHAVHPITALQIEWSLWSRDVEEDIIPTCRELGIGIVAYSPLGRGFFASGPKLVENLDNNDVRKTLPRFQQENLDHNKILFEKVSAMSEKKGCTPAQLALAWVHHQGDDVCPIPGTTKIENLNQNIGALSVKLTPEEMSELESLAQP”: the protein production entry is “failed”.
With “VRSQVLKYMVPGARVIRGLDWKWRDQDGSPQGEGTVTGELHNGWIDVTWDAGGSNSYRMGAEGKFDLKLAPGY” the entry was “not failed”.
With “VSDMNGLGFKPFDLVIPFAVRKGEITGEVHMPSGKTATPEIVDNKDGTVTVRYAPTEVGLHEMHIKYMGSHIPESPLQFYVNYPNSGS” the entry was “not failed”; with “VSDPLHVTFVCTGNICRSPMAEKMFAQQLRHRGLGDAVRVTSAGTGNWHVGSCADERAAGVLRAHGYPTDHRAAQVGTEHLAADLLVALDRNHARLLRQLGVEAARVRMLRSFDPRSGTHALDVEDPYYGDHSDFEEVFAVIESALPGLHDWVDERLARNGPS”, “not failed”; with “VSKAVQYMAKRRIGALIVFEKETGLQDYIETGIAMDSNISQELLINVFIPNTPLHDGAMIIQGTKIAAAASYLPLSDSPKISKSLGTRHRAAVGISEVSDAFTVIVSEETGDISVTFDGKLRRDISNEIFEELLAEHWFGTRFQKKGVK”, “failed”.
Under “VSKAVQYMAKRRIGALIVFEKETGLQDYIETGIPMNSDISQELLTNVFIPNTPLHDGAMIIQGSKIAVAASYLPLSDSVKISKSLGTRHRAAVGISEVSDAFTVVVSEETGDISVTFDGKLRRDISKDVFEELLAEHWFGAHFQKKGVNS” stands “not failed”; under “VSRDENSWLIDGATPLEEVTRVLDIAYFPDEENYETISGFMMYMLRKIPKKTDSVVYGKYKFEVIDTENFKIDQILVSLVKEQE”, “not failed”.
As to “VVIQFYEERLTWHTGSGNGNGNTNSVNLGSSGGLGSVGGSGAGDDTAPGSVGTTGGGSNIDGGDEEDPEPASPIGSINQDENIKPDESSELDNGQPDADD”, the protein production result is given as “failed”.
With “VVNDEWLSILGLSRQDITNHISDWDGLIHPNDDQFMKKTVQTHILSGKNYVVEFRMKHADGRWVWIQGSGSVIEYDENTHEPVRLCGTHQDITVRK” the entry was “failed”.
With “VWRPKSVSRDDVMVTEYGAVTSERPLPAGTTYSATSVTPPDDPEVLRTSGRDYPADIESRYTGVPASTSAQVGPFTDRLTEDSDSPYQTAATIEQWLEANKNYSLNVSQPPEDDVASEFIFQMDKGYCEYFATSMVVMLRSQDIPARYVVGYSTGERTGQNQYTVRGMNAHAWVEVYFEGVGWVKFDPTPGQ” the entry was “failed”.
In the case of “WIAQIHKTKTNYFLNLLKEGKIPLRPGIKRLLDELRKNNIKIAIATTTTYENVSTLLQCTLGDSALEWFDVIGAGDIVSKKKPAPDIYEWVLNQLNLPAEACIAIEDSENGLKSATAAGIKTIITISEYTREQNFSYAALVLEDLESTDHTHQIAAQSFDKPLSVQTLSDLLN”, the protein production entry is on record as “failed”.
In the case of “WILASTTEGAPSVAPLNVTVFLNESSDNVDIRWMKPPTKQQDGELVGYRISHVWQSAGISKELLEEVGQNGSRARISVQVHNATCTVRIAAVTRGGVGPFSDPVKIFIPAH”, the protein production result is recorded as “not failed”.
Regarding “WRKDIVLPKDQAKGVRPYNPKFKDSEYFSRYNALINDERLIEFAKKNNYKITFFPHPDIQQQIVDFEKHDYVEFADYNSSYQMLFNSSNIMITDFSSVAFDFAYEKKPVIYYQYEKSYHFKLDYYDYKKMGFGDVLENHNSLVDKVIYYMKNNSRMEDKYRKRVDNFFAYTDKNNRNRIYNAILE”, the protein production result is on record as “not failed”.
Regarding “YDDEDYQAEQDRREEQRRAAIAQTGVEVIPVHGVLVSRGSHLNACETMTSYEGLRAALNKAITDPMVEHIVLDIDSPGGSAVGAFELAADIRAATKIKPITGLVNFMAYSGGYLIASACTEVVVSLTSGVGSIGVVASHMDRSKMIEGMGVKVTTVFAGAHKNDLSPNEPITEQSLQVLNEVVQESYQLFTTHVAEYRGRDVADIIATEAACYRGSSAIAIGLADRLESPQ”, the protein production entry is reported as “failed”.
With “YDLLCRERDNFRILVAITNAVLSRLDIDELVSEVAKEIHHYFNIDAISIVLRSHRKNKLNIYSTHYLDEHHPAHEQSEVDEAGTLTERVFKSKEMLLINLNERDPLAPYERMLFDTWGNQIQTLCLLPLMSGKTMLGVLKLAQCEEKVFTTANLKLLRQIAERVAIAVDNALAYQEIHRLKER”, the protein production result is on record as “failed”.
Under “YKGQYFTPPHIAQAMAAMTLMDCHSIIEKRGFMKLQEPTCGSGVMIIGSYNHLRQEHFNPQQQLWVRAQDLDFTTAMMCYIQMTLLHIPGEVIIGNTLT” stands “failed”; under “YLDLWQTQDAKIRAKLAAVFQAEQNLNEAAIAYCLARALPEETAIFFANSMVVRYAEFFWQLNDQQILPYFNRGANGIDGTLSTALGIAENHSPAVLLTGDLALLHDINGFLTLSKFTGSLTIIVINNQGGGIFEMLPIAEEKDIFEDYFATPQTVEFSKVCDLYGIEYQAIQTKADLMQTCAILPPRGVRLLEVKTNRNQAMTWLKDLFQ”, “failed”.
With “YLKDLSLLISNDKQTILYAPTWKGNSVSKVKNDVFQIISDMNYLEEKIGSDYNVLIKVHPFLYSEASKVSELKGKLIPDFIDTNQLLSTVDILITDYSSIFFDFLVTDRPILFYMWDADDYNKQRGKYINNEDLPGPVLYNVRELVEAIGNIHQVKSEFQTNYEKNKVKFTNHDDGNVTKRVVEKIFK” the entry was “failed”.
With “YNFSFLSPQGLSFASQGPSAPFWSVFTPRVIGTAVARYNFAARDMRELSLREGDVVRIYSRIGGDQGWWKGETNGRIGWFPSTYVEEEGIQ” the entry was “failed”.
